Drawing on publication PMC8420772, this text covers stoichiometry N for one substance.

In this experiment the target is SeMet-labeled MtMce4A_(39–140) (Mycobacterium tuberculosis H37Rv). Put plainly: crystal structure; SeMet-labeled protein, 7.5 mg ml^−1; 100 mM MES, 700 mM ammonium sulfate pH 6.0, 22°C; space group P6_(5), 3.6 Å, SAD phasing.

As for “SeMet-labeled MtMce4A_(39–140) (domain or fragment)”, the stoichiometry N was 2.

In general, stoichiometry N refers to a count of units in the complex or per binding partner.
